The source of these data is the nanobody polyreactivity screen of Harvey et al. (2022).

The nature of the data set: yeast display, Sf9 membrane polyspecificity reagent, FACS + sequencing; frameworks hold sequencing errors. The method in brief:
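In a synthetic yeast display library (Saccharomyces cerevisiae BJ5465), nanobody expression was induced with galactose for 36–48 hours. FACS gates were set low and high (top ~1%) using anti-HA fluorescence for expression and streptavidin fluorescence for binding of the Sf9 membrane reagent. Each polyreactivity label is drawn from the gate of origin.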
As to “QVHLVESGGGLVQAGGSLRLSCAASGGIFKQYAMGLYRQAPGKERDLVAAITWSGGSTYYADSVKGRFTISRDNAKNTVYLQMNRLKPVDTAVYYCAADRRYLDRDKHRYGYWGQGTQVTVSS”, the “polyreactivity (PSR sort gate)” value is listed as “low polyreactivity”.

Turning to “QVQLVESGVGLVQAGGSLRLSCAASGIIFYPNAMGWYRQAPGKERELVAAISWRSGSTYYADSVKGRFTISRDNAKKTVYLQMNSLKPEDTAVYYCNADFWYSYGYDYWGQGTQVTVSS”, the “polyreactivity (PSR sort gate)” value is “low polyreactivity”.

Turning to “QVQLVESGGGLVQAGGSLRLSCAASGNTFFYYAMGWYRQAPGKERELVAAINRSGGSTYYADSVKGRFTISRDNAKNTVYLQMNSLKPEDTAVYYCARVLPGGWKSRISDYWGQGTQVTVSS”, the “polyreactivity (PSR sort gate)” value was “low polyreactivity”.

“QVQLVESGGGLVQAGGSLRLSCAASGRIFTTYAMGWYRQAPGKEREFVAAINYSGGRTYYAESVKGRFTISRDNAKNTVYLQMISLKPEETAVYYCAARSLFRGDYWGQGTQVTVSS”: the “polyreactivity (PSR sort gate)” value is reported as “high polyreactivity”.

As to “QVHLVESGGGLVQAGGSLRLSCAASGIIFAYYAMGWYRQAPGKERELVAAISSTGSTHYADSVKGRFTISRDNAKNTVYLQMNSLKPEDTAVYYCNAYYYYRFKPSHPGLRSYYWGQGTQVTVSS”, the “polyreactivity (PSR sort gate)” value is reported as “high polyreactivity”.

“QVQLVESGGGLVQAGGSLRLSCAASGSTFDGNAMGWYRQAPGKERELVASITQRASNTYYADSVKGRFTISRDNAKNTVDLQMNSLKPEDTAVYYCARQWYWRPVYYIGQGYEYWGQGTQVTVSS”: the “polyreactivity (PSR sort gate)” value is on record as “low polyreactivity”.

Turning to “QDQHVETGGRLVHAGCSLRISCAASGSTFTGYAMGWNRPPPGKERELVAAISSGGSTYYADSVKGRFTISRDNPKNTVYLQMNSLTPEDTAVYDCAAAPRWKASRLYYWGQCTQVTVSS”, the “polyreactivity (PSR sort gate)” value is “high polyreactivity”.

For “QVQLLESGGGLVQAGGSLRLSCAASGFIFPGYAMGWYRQAPGKEREFVAAITSRGGSTYYADSVKGRFTISRDNAKNTVYLQMNSLKPEDTAVYYCAARNFLSRRGTYDYWGQGTQVTVSS”, the “polyreactivity (PSR sort gate)” value is listed as “high polyreactivity”.

With “QVQLVESGGGLVQAGGSLRLSCAASGFIFSYYAMGWYRQAPGKERELVAAISRNGGRTYYADSVKGRFTISRDNAKNTVYLQMNSLKPEDTAVYYCATGKIREDDYWGQGTQVTVSS”, the “polyreactivity (PSR sort gate)” value was “high polyreactivity”.

For the sequence “QVQLVESGGGLVQAGGSLRLSCAASGRTFVVNAMGWYRQAPGKERELVARITNSGLTNYADSVKGRFTISRDNAKNTVYLQMNSLKPEDTAVYYCNAAASYYVMLSWTRVYYWGQGTQVTVSS”, the “polyreactivity (PSR sort gate)” value is recorded as “high polyreactivity”.

As for “QVQLVESGGGLVQAGGSLRLSCAASGLTFEYYAMGWYRQAPGKERELVAAISRRGSTYYADSVKGRFTISRDNAKNTVYLQMNSLKPEDTAVYYCNAVYYWYKGDYWGQGTQVTVSS”, the “polyreactivity (PSR sort gate)” value is recorded as “high polyreactivity”.

Turning to “QVQLVESGGGLVQAGGSLRLSCAASGRTFLRNAMGWYRPAPGKERELVAAITSSGGRTYYADSVKGRFTISRDNAKNTVYLQMNSLKPEDTAVYYCATDTGWPGRDYWGQGPQVTVSS”, the “polyreactivity (PSR sort gate)” value is on record as “high polyreactivity”.

As to “QVQLVESGGGLVQAGGSLRLSCAASGGTFHHYAMGWYRQAPGKERELVASITNGASTYYADSVKGRFTISRDNAKNTVYLQMNSLKPEDTAVYYCAKRCRVGKYRYEYWGQGTQVTVSS”, the “polyreactivity (PSR sort gate)” value is “low polyreactivity”.

As for “QVQLVESGGGLVQAGGSLRLSCAASGSIISRNAMGWYRQAPGKEREFVAAITRSGGSTSYADSVKGRFTISRDNAKSTVYLQMNSLKPEDTAVYYCAAAQKYRKEFDSWGQGTQVTVSS”, the “polyreactivity (PSR sort gate)” value is given as “high polyreactivity”.

For “QVQLVESGGGLVQAGGSLRLSCAASGRTFAWYAMAWYRQAPGKERELVATITSRGGSTYYADSVKGRFTISRDNAKNTVYLQMNSLKPEYTAVYYCAAQSFWRPHQYDYWGQGTQVTVSS”, the “polyreactivity (PSR sort gate)” value was “low polyreactivity”.

Take “QVQLVESGGGLVQAGGSLRLTCAASGSIFWDNAMGWYRQAPGKERALFAAITSSGGSTHYADSVKGRFTISRDNAKNTVYLQMYSLKPEDTAVYYCAARRYYGVYYAFLYWGQGTQVTVSS”: the “polyreactivity (PSR sort gate)” value is on record as “high polyreactivity”.
